Source: publication PMC3588017, “Measurement of the Interaction Between Recombinant I-domain from Integrin alpha 2 beta 1 and a Triple Helical Collagen Peptide with the GFOGER Binding Motif Using Molecular Force Spectroscopy” (International Journal of Molecular Sciences, 2013)

How the values were obtained:
[1] = biological target: GPP peptide, synthetic triple helical control peptide GPC[GPP]10GPCG; experiment: dynamic force spectroscopy (AFM); as a1, repeated over a range of loading rates; most dominant peak force against loading rate fitted with the Bell-Evans model; koff at zero applied force; settings: both partners purified
[2] = biological target: GFOGER peptide, synthetic triple helical collagen related peptide GPC[GPP]5GFOGER[GPP]5GPCG; experiment: as above; settings: both partners purified

B1: I-domain from integrin alpha 2 beta 1, locked open I-domain cleaved of its GST tag (CLOI) (domain or fragment)
chain: CPSLIDVVVVCDESNSIYPWDAVKNFLEKFVQGLDIGPTKTQVGLIQYANNPRVVFNLNTYKTKEEMIVATSQTSQYGGDLTNTFGAIQYARKYAYSAASGGRRSATKVMVVVTDGESHDGSMLKAVIDQCNHDNILRFGIAVLGYLNRNALDTKNLIKEIKAIASIPTERYFFNVSDEAALLEKAGTLGEQIFSIEG
In the case of B1, the koff [1] is reported as 11 s⁻¹ and the koff [2] is reported as 0.44 s⁻¹.
